Measured values as given in paper PMC2913146 (Molecular cell, 2010).

Biological target: the molecule itself
Assay: crystal structure

B1: PoxA (enzyme)
chain: MSETATWQPSASIPNLLKRAAIMAEIRRFFADRGVLEVETPCMSQATVTDIHLFPFETRFVGPGHSQGINLYLMTSPEYHMKRLLAAGCGPVFQLCRSFRNEEMGRHHNPEFTMLEWYRPHYDMYRLMNEVDDLLQQVLDCQPAESLSYQQAFQRHLEIDPLSADKTQLREAAAKLDLSNIADTEEDRDTLLQLLFTMGVEPHIGKEKPTFIYHFPASQASLAQISTEDHRVAERFEVYYKGIELANGFHELTDAREQQQRFEQDNRKRAARGLPQQPIDQNLLDALAAGLPDCSGVALGVDRLVMLALGAESLADVIAFTVDRA
- binding result: binds
